Experimental data: article PMC10502012

Experiments:
[1] = target: chicken PHT1 (purified, wild type) (chicken); experiment: thermal shift (nanoDSF); TASL peptide titration: PHT1 with eleven 2-fold peptide dilutions from 100 µM; gel filtration buffer with 5% DMSO; KD fitted by a modified Hall's method
[2] = target: chicken PHT1 (purified, wild type) (chicken); experiment: thermal shift (nanoDSF); concentration-dependent thermal shift of PHT1 with dipeptides; KD fitted by a modified Hall's method

Row | Substance | Kd [1] | Kd [2]
1 | TASL_(1-13) peptide | 0.36 µM | –
2 | Lysine-Valine dipeptide | – | 63 µM
3 | TASL peptide with a length of 14 residues | 0.4 µM | –
4 | Arginine-Phenylalanine dipeptide | – | 73 µM
